Kd data for one substance are collected here from publication PMC3656037.

This data set relates to Sau-PolC-ΔNΔExo (Staphylococcus aureus). Nature of the data set: active site titration (pre-steady-state burst amplitude vs DNA, quadratic fit). To be noted: Reaction buffer, salt, pH and temperature not given in the material; DNA annealed in 10 mM Tris-HCl pH 8, 1 mM EDTA, 100 mM NaCl; protein stored in 50 mM ….

In general, Kd refers to a measure of binding affinity in units of concentration. Regarding primer/template (p/t) DNA, the Kd stood at 390 nM.
